# How the values were obtained:
# [1] = biological target: A/Singapore/INFIMH/16 (Sing/16) H3 hemagglutinin, recombinant HA-GCN4-2x sfGFP, glycosylated (influenza A virus A/Singapore/INFIMH/16 (H3N2)); test: cryo-EM structure
# [2] = biological target: A/Singapore/INFIMH/16 (Sing/16) H3 hemagglutinin, recombinant HA-GCN4-2x sfGFP, treated with endo H (influenza A virus A/Singapore/INFIMH/16 (H3N2)); test: cryo-EM structure
Substance,stoichiometry N [1],stoichiometry N [2]
"A/Singapore/INFIMH/16 (Sing/16) H3 hemagglutinin, recombinant HA-GCN4-2x sfGFP, glycosylated (natural protein)",3,–
"A/Singapore/INFIMH/16 (Sing/16) H3 hemagglutinin, recombinant HA-GCN4-2x sfGFP, treated with endo H (natural protein)",–,3

# — publication PMC12749422
